Type in all cases: in vivo, C57BL/6J mice
Test [1] has as its system Insulin and Glucagon expression in pancreatic islets. In words: Glucagon/Insulin immunohistochemistry of pancreatic islets (average optical density). The procedure:
(§1) Pancreatic tissues were sectioned at 4 μm and baked at 60° C. for 2 h until paraffin melted. Sections underwent hematoxylin-eosin (H&E) staining.
(§2) Sections were immersed in methanol containing 3% hydrogen peroxide (endogenous peroxidase blocker) for 15 min. After PBS (10 mM, pH=7.0) rinsing, sections were incubated at 25° C. for 1 h with antibody cocktails (rabbit anti-glucagon monoclonal antibody: anti-somatostatin antibody=1:1), or separately with: anti-mouse insulin antigen monoclonal antibody, anti-proliferating cell nuclear antigen (PCNA) monoclonal antibody, rabbit anti-Ki67 monoclonal antibody. Alternatively, sections were incubated with guinea pig anti-PDX-1 monoclonal antibody at 4° C. for 14 h. Nuclei were counterstained blue with hematoxylin and sections were subjected to morphometric analysis.
Glucagon/Insulin Analysis Method: The immunohistochemistry results were analyzed for average optical density analysis using Image-Pro Plus 6.0 (Media Cybernetics, Inc., Rockville, MD, USA). For each section with a group, at least 3 fields of view at 200× magnification were captured. […] The integrated optical density (IOD) value of positive staining on the pancreatic islet and the pixel area (AREA) of the pancreatic islet were analyzed for each photo. The average optical density value (AO value) was calculated as AO=IOD/AREA. […]

Test [2] has as its system C57BL/6J diabetic model mice. The experiment in a line: Weekly fasting blood glucose in high-fat diet diabetic model mice under treatment. The note with it: daily subcutaneous injection, rhCygb 5 mg/kg; weekly monitoring; vs PBS group; FIG. 7. The text has this:
50 SPF-grade male C57BL/6J mice were purchased from Guangzhou Sebiona Biotech Co., Ltd. Their health status and whether they were all male were checked. All male mice were divided into groups of 5 per cage, totaling ten cages, with cage numbering. Cages 1 to 8 were designated as the high-fat diet modeling group and fed a high-fat diet with ad libitum feeding and drinking. Cages 9 and 10 were designated as the normal diet modeling group and fed standard chow with ad libitum feeding and drinking. All mice were marked with tail lines for identification. During modeling, body weight and fasting blood glucose (FBG) levels of all mice were measured weekly, and tail markings were reinforced. […] At 9:00 AM every Friday, body weight was measured, the tail tip was clipped, and approximately 1-2 μL of (a drop of) blood was applied to a Roche Accu-Chek® Active test strip on a glucometer to determine FBG. […]
(§3) The mice of placebo group, rhCygb treatment group, and EX-4 treatment group received daily subcutaneous injections of PBS, rhCygb, or EX-4, respectively for 2 months (frequency adjusted based on survival status of mice). […] Absorbance at 510 nm was measured using a microplate reader. Cholesterol content was calculated according to the formula: […]

The test system of test [3] is pancreatic tissue of C57BL/6J diabetic model mice. The experiment in a line: H&E staining of pancreatic tissue sections. The procedure:
(§4) The AUC for blood glucose changes within two hours post-glucose gavage was shown in FIG. 5, confirming impaired glucose tolerance in the DM group. • 2) Successfully modeled mice were divided into three groups based on no statistical difference in blood glucose within groups and statistical difference in blood glucose between groups: wherein the three groups are rhCygb treatment group (5 mg/kg subcutaneous injection), exendin-4 treatment group (50 μg/kg subcutaneous injection), and placebo group (0.1 mL PBS subcutaneous injection) (grouping without re-caging, mice remained in original cages), respectively.
as §3
The severity of lesions observed in the HE-stained pathological sections of each mouse was graded. This ordinal data was analyzed using the K Independent Samples non-parametric test in SPSS software, and the result indicated a statistically significant difference between groups. As SPSS lacks pairwise comparison for multiple independent samples, all data were ranked and converted into quantitative data, then subjected to one-way ANOVA.

Another test relates to PCNA. In words: PCNA immunohistochemistry of pancreatic tissue. The note with it: pancreas; 4-week treatment; FIG. 15 to 16D. Here is the method:
as §1, §2
PCNA Analysis method: The immunohistochemistry results were analyzed for percentage using Image-Pro Plus 6.0 (Media Cybernetics, Rockville, MD, USA), at least 3 random field of view at 200× per section within a group were captured. […] Each photo was analyzed to obtain the number of positive cells and the total number of cells in each photo. Then, the percentage of positive cells was calculated, as: Positive cell percentage (%)=(Positive nuclei count/Total nuclei count)*100 was calculated as the positive rate.

Test [4] has as its system renal tissue of C57BL/6J diabetic model mice. In words: H&E staining of renal tissue. As to conditions: FIG. 14. Here is the method: as §4
The mice of placebo group, rhCygb treatment group, and EX-4 treatment group received daily subcutaneous injections of PBS, rhCygb, or EX-4, respectively for 2 months (frequency adjusted based on survival status of mice). […] Mice were immediately sacrificed by cervical dislocation after blood collection and dissected for tissue collection. Liver tissue, pancreas, kidneys, heart, lungs, stomach, and spleen were sequentially collected for biochemical and pathological examination as detailed below. 3. Measurement of four blood lipid items • 1) Total Cholesterol (T-CHO) Measurement: prepared serum was diluted tenfold with physiological saline at a 1:9 ratio. […] Absorbance at 510 nm was measured using a microplate reader. Cholesterol content was calculated according to the formula: […]

Test [5] has as its system C57BL/6J diabetic model mice. The experiment in a line: Four blood lipid items in serum of treated mice (T-CHO, TG, HDL-C, LDL-C kits). The note with it: after 28 d of treatment. The procedure:
as §4
The mice of placebo group, rhCygb treatment group, and EX-4 treatment group received daily subcutaneous injections of PBS, rhCygb, or EX-4, respectively for 2 months (frequency adjusted based on survival status of mice). […] Mice were immediately sacrificed by cervical dislocation after blood collection and dissected for tissue collection. Liver tissue, pancreas, kidneys, heart, lungs, stomach, and spleen were sequentially collected for biochemical and pathological examination as detailed below. 3. Measurement of four blood lipid items • 1) Total Cholesterol (T-CHO) Measurement: prepared serum was diluted tenfold with physiological saline at a 1:9 ratio. Into each well of a 96-well plate, 2.5 μL of deionized water, 2.5 μL of standard, and 2.5 μL of sample were sequentially added. Then, 250 μL of working solution was added to each well, thoroughly mixed, and incubated at 37° C. for 10 min in an electric thermostatic incubator. Absorbance at 510 nm was measured using a microplate reader. Cholesterol content was calculated according to the formula: […]
Serum from each treated C57BL/6J mouse was assayed using a total cholesterol assay kit. […] Furthermore, no significant difference was observed between the treated groups (rhCygb treatment group and exendin-4 treatment group) and the blank control group, indicating effective therapeutic outcomes. • 2) Triglyceride (TG) Measurement: prepared serum was diluted tenfold with physiological saline at a 1:9 ratio. […] Absorbance at 510 nm was measured using a microplate reader. Triglyceride content was calculated according to the formula: […]
Serum from each treated C57BL/6J mouse was assayed using a triglyceride assay kit. […] Absorbance at 546 nm (A1) was measured using a microplate reader. […] Absorbance at 546 nm (A2) was measured again. HDL-C content was calculated according to the formula: […]
Serum from each treated C57BL/6J mouse was assayed using an HDL-C assay kit. […] Absorbance at 546 nm (A1) was measured using a microplate reader. […] Absorbance at 546 nm (A2) was measured again. LDL-C content was calculated according to the formula: […]

The results in this text go back to patent US20260216299A1, “Use of Cytoglobin in Preparation of Drug for Preventing and/or Treating Diabetes” (priority 2022, published 2026).

B1: rhCygb: recombinant human cytoglobin; hexacoordinate heme globin, 21.4 kDa, 190 amino acids, injected as PBS solution (protein, UniProt Q8WWM9 1-190, looked up)
Cytoglobin: MEKVPGEMEIERRERSEELSEAERKAVQAMWARLYANCEDVGVAILVRFFVNFPSAKQYFSQFKHMEDPLEMERSPQLRKHACRVMGALNTVVENLHDPDKVSSVLALVGKAHALKHKVEPVYFKILSGVILEVVAEEFASDFPPETQRAWAKLRGLIYSHVTAAYKEVGWVQQVPNATTPPATLPSSGP
Consider B1, for which the “expression level of glucagon (average optical density)” value in test [1] (FIG. 17, 19) was “statistically significant differences compared to both the PBS group and the NC group”. Besides, the “expression level of insulin (average optical density)” value in test [1] (FIG. 18, 20) was “statistically significant differences compared to both the PBS group and the NC group”. The blood glucose entry in test [2] is reported as “significantly reduced blood glucose after 6 weeks”. Also, the “severity of lesions in HE-stained pancreatic sections (graded, ranked, one-way ANOVA)” value in test [3] (FIG. 13) is “no significant difference between rhCygb and NC groups”. Also, the “pancreatic tissue morphology (H&E)” value in test [3] (acinar cell steatosis, islet morphology, inflammation, FIGS. 12A-12D) is given as “normal pancreatic islet morphology without significant inflammation”. The PCNA-positive cell rate result with PCNA is given as “significantly enhanced PCNA staining intensity”. For the same molecule, in test [4], the “renal steatosis and inflammatory cell infiltration (H&E)” value is recorded as “near-normal renal morphology without significant inflammatory cells”. Moreover, the HDL-C levels entry in test [5] (vs NC group, FIG. 10) is on record as “numerically higher HDL-C levels on average compared to other groups”. For the same molecule, the total cholesterol levels entry in test [5] (subcutaneous rhCygb 5 mg/kg or exendin-4 50 μg/kg, FIG. 8) is listed as “statistically significant reduction in total cholesterol levels compared to the placebo group”. In addition, in test [5] (subcutaneous rhCygb 5 mg/kg or exendin-4 50 μg/kg, FIG. 11), the LDL-C levels entry is “statistically significant reduction in LDL-C levels compared to the placebo group”. Also, the triglyceride levels entry in test [5] (subcutaneous rhCygb 5 mg/kg, FIG. 9) was “statistically significant reduction in triglyceride levels compared to the placebo group”.
